Experimental data taken from the Immune Epitope Database (IEDB).

Columns and labels:
Settings in all cases: source organism: Yersinia pestis Nepal516
HLA-C*14:02 = assay: IEDB peptide-MHC binding, purified MHC/direct/fluorescence; filed as Kd, often an IC50 or EC50 that approximates it; ≥ and ≤ were set here for values at or beyond the usual limits of such assays
HLA-C*15:02 = assay: as above
HLA-B*15:42 = assay: IEDB peptide-MHC binding, purified MHC/competitive/fluorescence; filed as Kd, often an IC50 or EC50 that approximates it; ≥ and ≤ were set here for values at or beyond the usual limits of such assays
HLA-B*40:13 = assay: as above
HLA-B*27:20 = assay: as above
HLA-B*83:01 = assay: as above
HLA-C*06:02 = assay: as above
HLA-A*02:01 = assay: as above
HLA-B*45:06 = assay: as above
HLA-B*58:01 = assay: as above
HLA-A*26:01 = assay: as above
HLA-B*15:01 = assay: as above
HLA-A*32:15 = assay: as above

Question: How did the Kd (HLA-C*14:02) turn out when YMYDFILRF was run?
Answer: Its Kd is 4.11 µM.

Question: What about the Kd (HLA-C*15:02) of the same sequence?
Answer: The Kd was ≥ 20 µM.

Question: And the Kd (HLA-B*15:42)?
Answer: The Kd was ≥ 5 µM.

Question: And the Kd (HLA-B*40:13)?
Answer: The Kd was 0.159 µM.

Question: And the Kd (HLA-B*27:20)?
Answer: The Kd was 0.0633 µM.

Question: What about the Kd (HLA-B*83:01) of the same sequence?
Answer: The Kd was ≥ 5 µM.

Question: What about the Kd (HLA-C*06:02) of the same sequence?
Answer: Its Kd is 1.18 µM.

Question: What about the Kd (HLA-A*02:01) of the same sequence?
Answer: The Kd was 0.0159 µM.

Question: And the Kd (HLA-B*45:06)?
Answer: The Kd was ≥ 5 µM.

Question: And the Kd (HLA-B*58:01)?
Answer: Its Kd is ≥ 20 µM.

Question: What about the Kd (HLA-A*26:01) of the same sequence?
Answer: Its Kd is ≥ 20 µM.

Question: And the Kd (HLA-B*15:01)?
Answer: Its Kd is 2.33 µM.

Question: What about the Kd (HLA-A*32:15) of the same sequence?
Answer: The Kd was 0.908 µM.
